From patent publication US20140271648A1 (Janssen / Centocor, published 2014) come the findings set out here.

Experiment [1] addresses T1, human IFNαC (human, UniProt P01566 24-189). Put plainly: cell-based or functional assay.
For experiment [2], the target named is T2, human IFNαF (human, UniProt P01568 24-189).
T2 chain: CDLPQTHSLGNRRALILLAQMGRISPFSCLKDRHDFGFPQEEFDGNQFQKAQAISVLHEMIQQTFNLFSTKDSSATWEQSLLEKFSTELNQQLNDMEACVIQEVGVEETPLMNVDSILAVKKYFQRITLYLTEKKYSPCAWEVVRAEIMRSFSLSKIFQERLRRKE
Put plainly: cell-based or functional assay.

The target of experiment [3] is T3, human IFNαG (human, UniProt P01569 24-189). Put plainly: cell-based or functional assay.
T3 sequence (P01569 24-189): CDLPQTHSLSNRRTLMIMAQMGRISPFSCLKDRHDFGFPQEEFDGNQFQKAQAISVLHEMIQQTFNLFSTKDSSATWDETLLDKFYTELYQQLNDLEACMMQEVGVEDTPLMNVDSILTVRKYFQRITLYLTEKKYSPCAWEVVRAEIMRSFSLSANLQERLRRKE
The target of experiment [4] is T4, human IFNαH2 (human, UniProt P01570 24-189). Kind of experiment: cell-based or functional assay.
T4 sequence (P01570 24-189): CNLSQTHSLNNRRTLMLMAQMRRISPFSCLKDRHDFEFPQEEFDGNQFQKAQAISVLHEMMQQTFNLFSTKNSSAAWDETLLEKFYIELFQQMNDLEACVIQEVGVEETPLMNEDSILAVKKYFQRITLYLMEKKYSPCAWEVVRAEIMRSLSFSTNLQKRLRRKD
Experiment [5] addresses T5, human IFNαJ1 (human, UniProt P01567 24-189). Kind of experiment: cell-based or functional assay.
For experiment [6], the target named is T6, human IFNαK (human, UniProt P05013 24-189). Kind of experiment: cell-based or functional assay.
T6 sequence (P05013 24-189): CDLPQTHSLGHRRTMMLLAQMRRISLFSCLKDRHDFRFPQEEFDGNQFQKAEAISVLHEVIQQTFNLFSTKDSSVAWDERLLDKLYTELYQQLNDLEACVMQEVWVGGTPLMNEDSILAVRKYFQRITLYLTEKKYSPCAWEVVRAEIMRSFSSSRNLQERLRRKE
Experiment [7] concerns the target T7, human IFNαWA (human, UniProt P05015 24-189). Put plainly: cell-based or functional assay.
In experiment [8] the target is T8, human IFNω (human, UniProt P05000 24-195). Put plainly: cell-based or functional assay.
T8 sequence (P05000 24-195 limits assumed): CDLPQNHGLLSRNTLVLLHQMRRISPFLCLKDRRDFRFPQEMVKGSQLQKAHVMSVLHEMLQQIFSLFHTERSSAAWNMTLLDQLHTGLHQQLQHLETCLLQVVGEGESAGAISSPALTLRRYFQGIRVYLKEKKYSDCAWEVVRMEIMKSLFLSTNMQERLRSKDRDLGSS
The target in experiment [9] is T1, human IFNαC. Kind of experiment: SPR (ProteOn); mAb captured on anti-human Fc, IFN as analyte.
Experimental: (§1) Binding affinities of the antibodies were performed using SPR technology with ProteOn (Bio-Rad Hercules, Calif.). Goat anti-human Fc antibodies (manufacture) were amine-coupled to GLC chips (Bio-Rad Hercules, Calif.) using standard NHS/EDC chemistry as manufacture recommended. The anti-IFN mAbs were then loaded on the antibody coupled chip for 2 minutes at the flow rate of 30 μl/min. […] The chips were generated with 100 mM phosphoric acid in each direction between running different antigens. Data analysis was performed using ProteOn manager (Bio-Rad Hercules, Calif.). The sensorgrams were grouped by mAbs. After applying alignment and reference correction (using either interspot or blank channel referencing), the SPR data were fit globally to Langmuir model for kinetic rate constants (KD=koff/kₒₙ, where KD=equilibrium dissociation constant, kₒₙ=association rate constant, and koff=dissociation rate constant).
The target of a further experiment is T9, human IFNαD (human, UniProt A0A087WWS6 25-190).
T9 construct: also called Alpha D (alpha 1); IFNα1
T9 chain: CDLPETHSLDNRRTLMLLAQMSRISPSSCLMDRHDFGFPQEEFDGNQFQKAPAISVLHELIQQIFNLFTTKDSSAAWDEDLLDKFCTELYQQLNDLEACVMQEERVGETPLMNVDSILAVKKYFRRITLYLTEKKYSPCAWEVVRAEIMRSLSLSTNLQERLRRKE
The description is as above.

The target in experiment [10] is T2, human IFNαF. The description is as above.
Experimental: as §1
Experiment [11] concerns the target T3, human IFNαG. Described as above.
Experimental: as §1
Experiment [12] concerns the target T4, human IFNαH2. The description is as above.
Experimental: as §1
Experiment [13] has as its target T5, human IFNαJ1. The description is as above.
Experimental: as §1
Experiment [14] concerns the target T6, human IFNαK. The description is as above.
Experimental: as §1
In experiment [15] the target is T7, human IFNαWA. The description is as above.
Experimental: as §1
Experiment [16] concerns the target T8, human IFNω. Described as above.
Experimental: as §1
A further experiment deals with T10, human IFNβ (human, UniProt P01574 22-187).
T10 construct: also called interferon-β
T10 sequence (P01574 22-187 limits assumed): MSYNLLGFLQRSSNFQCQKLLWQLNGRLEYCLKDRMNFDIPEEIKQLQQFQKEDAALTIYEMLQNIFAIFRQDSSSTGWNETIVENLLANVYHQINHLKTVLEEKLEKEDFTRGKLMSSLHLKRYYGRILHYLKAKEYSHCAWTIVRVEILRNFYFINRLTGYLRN
The experiment is described as above.

A further experiment has as its target T11, human IFNω T80E variant (human, UniProt P05000 24-195).
T11 construct: Expressed in HEK293F cells; used for the crystal structures; In the Fab357 crystal only residues R22-P39 and L118-L154 were seen (proteolytic cleavage during crystallization); also called IFN-omega (T80E)
Kind of experiment: complex formed, purified by size exclusion and co-crystallized. Background: Size exclusion chromatography separates by hydrodynamic size, large species first.

Numbering of substitutions follows the chain as printed.

T5 sequence (P01567 24-189): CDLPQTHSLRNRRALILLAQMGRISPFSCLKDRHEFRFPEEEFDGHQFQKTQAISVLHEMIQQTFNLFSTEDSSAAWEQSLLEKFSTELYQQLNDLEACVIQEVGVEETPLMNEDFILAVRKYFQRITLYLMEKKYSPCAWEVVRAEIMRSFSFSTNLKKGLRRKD
T1 sequence (P01566 24-189): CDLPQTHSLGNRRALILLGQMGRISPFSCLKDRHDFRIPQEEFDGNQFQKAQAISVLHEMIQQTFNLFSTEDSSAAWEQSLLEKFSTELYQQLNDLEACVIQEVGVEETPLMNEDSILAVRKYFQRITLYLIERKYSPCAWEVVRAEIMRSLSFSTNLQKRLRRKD
T11 sequence (P05000 24-195 T103E limits assumed): as the sequence (P05000 24-195 limits assumed) above, with T80E counted along it
Experimental for human IFNαD: as §1
Experimental for human IFNβ: as §1

B1: IFWM43 (antibody, V domains shown)
VH: QVQLVQSGAEVKKPGSSVKVSCKASGGTFSSYAISWVRQAPGQGLEWMGGIIPIFGTANYAQKFQGRVTITADESTSTAYMELSSLRSEDTAVYYCARDSWGSYYAALDYWGQGTLVTVSS
VL: not shown
notes: Fab from a pIX phage display library, converted to human IgG1 mAb; also called anti IFNα/ω mAb M43
By Kd is commonly meant the equilibrium constant for the complex coming apart. As for B1, the “IC50, ISRE reporter gene assay” value in the experiment with human IFNαC [1] was determined as 14.9 nM; with human IFNαF [2] it was 3.7 nM; with human IFNαG [3] it was 5.3 nM; with human IFNαH2 [4], 51 nM; with human IFNαJ1 [5], 1 nM; with human IFNαK [6], 10.4 nM. For the same molecule, the “IC50, ISRE reporter gene assay” value in the experiment with human IFNαWA [7] was 9.2 nM; in the experiment with human IFNω [8], 18.5 nM. The Kd amounted to 0.4 nM with human IFNαC [9]; 0.9 nM with human IFNαF [10]; 0.6 nM with human IFNαG [11]; 0.6 nM with human IFNαH2 [12]; 0.4 nM in the experiment with human IFNαJ1 [13]; 0.3 nM in the experiment with human IFNαK [14]. Moreover, the Kd with human IFNαWA [15] came to 0.6 nM; in the experiment with human IFNω [16] it was 0.3 nM. Besides, in the experiment with human IFNαD, the binding result was “no binding (tested: antigen up to 100 nM)”.

B2: IFWM88 (antibody, V domains shown)
VH: B1 VH with D99H, S100L, W101E, G102Y, S103A, Y104F, Y105P, A106D, A107K, L108F
VL: not shown
notes: Fab from a pIX phage display library, converted to human IgG1 mAb
Regarding B2, the “IC50, ISRE reporter gene assay” value in the experiment with human IFNαC [1] was 136 nM; in the experiment with human IFNαF [2], 24.6 nM; in the experiment with human IFNαG [3], 23.4 nM; in the experiment with human IFNαJ1 [5], 21.9 nM. In addition, the Kd in the experiment with human IFNαC [9] was 3.2 nM; with human IFNαF [10], 1 nM; with human IFNαG [11], 0.8 nM; with human IFNαH2 [12] it was 5.5 nM; with human IFNαJ1 [13] it was 4.5 nM; in the experiment with human IFNαWA [15] it was 97.3 nM. In the experiment with human IFNω [16], this molecule came in with a Kd of 53 nM. Besides, the binding result with human IFNαD and in the experiment with human IFNβ was “no binding (tested: antigen up to 100 nM)” throughout.

B3: FabM43 (Fab, V domains shown)
VH: B1 VH
VL: not shown
notes: His-tagged Fab, IgG1/κ isotype, expressed in HEK293F cells; also called Fab of IFWM43; His-tagged FabM43
With B3, the binding result in the experiment with human IFNω T80E variant was “binds”.

B4: C2595 (antibody, V domains shown)
VH: EVQLQQSGGDLVKPGGSLKLSCAASGFTFSSYGMSWVRQTPDKRLDWVSIITSGGSYTYYPDSVKGRFTISRDNAKNTLYLQMSSLKSEDTAMYYCARHAEGGGNYDYAMDYWGQGTSVTVSS
VL: DIVMTQAAFSNPVTLGTSASISCRSSKSLLHSNGITYLYWYLQKPGQSPQLLIYQMSNLASGVPDRFSSSGSGIDFTLRISRVEAEDVGAYYCAQNLELPFTFGSGTKLEIK
On to B4, for which the “IC50, ISRE reporter gene assay” value with human IFNαC [1] turned out to be 1.5 nM; with human IFNαF [2], 2.6 nM; with human IFNαG [3], 2.6 nM; with human IFNαH2 [4] it was 20.3 nM; with human IFNαJ1 [5], 1.4 nM; in the experiment with human IFNω [8] it was 0.9 nM.

B5: Fab357 (Fab, V domains shown)
VH: B4 VH
VL: B4 VL
notes: also called Fab of C2595
Turning to B5, the binding result with human IFNω T80E variant is on record as “binds”.

B6: M3239 (antibody, human IgG1, V domains shown)
VH: B4 VH
VL: B4 VL
Consider B6, for which the Kd with human IFNαC [9] was determined as 1.3 nM; with human IFNαF [10], 15.1 nM; in the experiment with human IFNαG [11], 10.3 nM; in the experiment with human IFNαH2 [12], 61.6 nM; in the experiment with human IFNαJ1 [13], 4.3 nM; with human IFNω [16] it was 4.5 nM. The binding result with human IFNαD, in the experiment with human IFNαK [14], with human IFNαWA [15] and in the experiment with human IFNβ was “no binding (tested: antigen up to 100 nM)” each time.
